Data on twelve substances can be found in patent US20100041597A1, “PEPTIDES TARGETED TO PROTEIN KINASE C ISOFORMS AND USES THEREOF” (priority 2005, published 2010).

One test addresses PKC-βII (Homo sapiens, UniProt P05771). Description: ELISA-based competitive binding assay with purified PKC isoform. Details: key to Affinity for PKC isoform βII: —: no detectable affinity; Low to very low affinity at 10X or 20X or both PRE concentrations in at least one cell line in the cell extract assay; Low affinity in purified isoform assay.; Moderate affinity at 10X or 20X or both PRE concentrations in at least one cell line in the cell extract assay.; High affinity at 10X or 20X or both PRE concentrations in at least one cell line in the cell extract assay; High affinity in purified isoform assay. As to conditions: for inhibition at 50 µM / inhibition at 100 µM / inhibition at 200 µM / calculated binding capacity (100-% n) after subtraction of the DMSO apparent binding capacity: purified PKC-βII; for inhibition at 50 µM / inhibition at 100 µM / inhibition at 200 µM: read-out: calculated binding capacity (100-% n) after subtraction of the DMSO apparent binding capacity; for Affinity for PKC isoform βII: Purified isoform, Table 20. Here is the method: (§1) Peptides PRE 1, 2, 3, 4, 5, 6, 7, 8, 9, 10, 11, 12 and 13 (see Table 3) were tested for their ability to interfere with binding of PKC isoform-specific antibodies to their target PKC isoforms using a competitive binding assay and purified PKC isoforms.
(§2) Procedure: Competitive binding was assessed using a 96 well plate ELISA-based assay as described below.
(§3) Greiner 96 well ELISA plates were coated with the appropriate PKC isoform diluted in PBSN (PBS with Calcium/Magnesium+0.05% Sodium azide w/w). 50 μL/well at 250 ng/mL was used. Control wells contained PBSN only. Plates were incubated overnight at 4° C.
(§4) The plates were washed 3 times with 200 μL of dH2O per well, then 100 μL of blocking solution was added per well and the plate incubated for 1 h at 37° C. The washing steps with dH2O were repeated and 50 μL of the appropriate PRE solution (PRE stock solution [20 mM in DMSO] diluted in PBSN) was added and the plate incubated for 1 h at room temperature.
(§5) After incubation, 5 μL of 1.1:400 anti-PKC (isoform specific antibody) was added per well (to provide a final concentration of 1:4000). For PKC-epsilon, 1.1:800 dilution was used and for PKC-zeta a 1.1:100 dilution was used due to high and low binding affinity, respectively. The plates were then incubated 1 h at room temperature, followed by washing with dH2O as described above.
(§6) 50 μL of 1:1000 dilution of Alkaline Phosphatase (AP) conjugated antibody (anti-rabbit for all except zeta, which was anti-goat) was then added and the plate incubated for 1 h at room temperature. Washing with dH2O was then repeated. Finally, 100 μL of pNPP solution in pNPP buffer (2 mM MgCl2, 100 mM Sodium bicarbonate in water, pH 9.8) was added to all wells and incubated for 8 minutes for α, βI, βII ε, and ζ, or for 15-20 mins for […] (until sufficient coloration is observed). The reaction was stopped by addition of Stop solution (2N NaOH) and the absorbance at 405 nm was read on a Galaxy Plate reader.
(§7) Controls were PKC without PRE; blank controls, and controls containing the final concentrations of DMSO used for solubilizing the PREs. The non-specific binding capacity related to DMSO was also measured.
(§8) The antibodies used were as follows: anti-PKC α (Cat. No. SC-208); anti-PKC βI (Cat. No. SC-209); anti-PKC βII (Cat. No. SC-210); anti-PKC δ (Cat. No. SC-213); anti-PKC ε (Cat. No. SC-214); anti-PKC ζ (Cat. No. SC-216-G) (all from Santa Cruz Biotechnology, Inc.). The AP-conjugated antibodies were obtained from Jackson Immuno Research Laboratories (West Grove, Pa.).
(§9) Calculations: The OD values measured at 405 nm represent the free PKC coated per well.
(§10) OD405 PKC alone−Blank OD405 of each sample=OD405 coated isoform
(§11) (OD405 of sample X/OD405 coated isoform)×100=% n that represents the percentage of X binding compared to control.
(§12) 100-% n measures the relative binding capacity of X towards the tested isoform.
(§13) The apparent binding capacity of the DMSO samples was then subtracted from X binding capacity.
(§14) All measurements were made in triplicate and the values in the table represent the averaged calculated binding capacity values after subtraction of the DMSO apparent binding capacity (averaged from 12 values, respectively 10.80, 11.20 and 16.40 corresponding to the concentrations of DMSO used to dilute the […] at 200, 100 and 50 μM respectively). The results allow for quantitative comparison of the binding capacity of each PRE towards an individual isoform within each table, but not among isoforms due to differences in sensitivity of the specific antibodies toward the secondary antibody. This applies particularly to PKC-delta. As noted above, the colour development duration was increased 2-3 times and, as a result, the OD405 measurements may be overestimated for this isoform.

The next test concerns the target PKC-βI (Homo sapiens, UniProt P05771). The description is as above. Details: key to Affinity for PKC isoform βI: —: no detectable affinity; Low to very low affinity at 10X or 20X or both PRE concentrations in at least one cell line in the cell extract assay; Low affinity in purified isoform assay.; Moderate affinity at 10X or 20X or both PRE concentrations in at least one cell line in the cell extract assay.; High affinity at 10X or 20X or both PRE concentrations in at least one cell line in the cell extract assay; High affinity in purified isoform assay. As to conditions: for inhibition at 50 µM / inhibition at 100 µM / inhibition at 200 µM / calculated binding capacity (100-% n) after subtraction of the DMSO apparent binding capacity: purified PKC-βI; for inhibition at 50 µM / inhibition at 100 µM / inhibition at 200 µM: read-out: calculated binding capacity (100-% n) after subtraction of the DMSO apparent binding capacity; for Affinity for PKC isoform βI: Purified isoform, Table 20; for targeting of PKC-βI: purified isoform, Tables 14-19. Here is the method: as §1, §2, §3, §4, §5, §6, §7, §8, §9, §10, §11, §12, §13, §14

Sequence of PKC-βI (P05771 whole entry, canonical isoform): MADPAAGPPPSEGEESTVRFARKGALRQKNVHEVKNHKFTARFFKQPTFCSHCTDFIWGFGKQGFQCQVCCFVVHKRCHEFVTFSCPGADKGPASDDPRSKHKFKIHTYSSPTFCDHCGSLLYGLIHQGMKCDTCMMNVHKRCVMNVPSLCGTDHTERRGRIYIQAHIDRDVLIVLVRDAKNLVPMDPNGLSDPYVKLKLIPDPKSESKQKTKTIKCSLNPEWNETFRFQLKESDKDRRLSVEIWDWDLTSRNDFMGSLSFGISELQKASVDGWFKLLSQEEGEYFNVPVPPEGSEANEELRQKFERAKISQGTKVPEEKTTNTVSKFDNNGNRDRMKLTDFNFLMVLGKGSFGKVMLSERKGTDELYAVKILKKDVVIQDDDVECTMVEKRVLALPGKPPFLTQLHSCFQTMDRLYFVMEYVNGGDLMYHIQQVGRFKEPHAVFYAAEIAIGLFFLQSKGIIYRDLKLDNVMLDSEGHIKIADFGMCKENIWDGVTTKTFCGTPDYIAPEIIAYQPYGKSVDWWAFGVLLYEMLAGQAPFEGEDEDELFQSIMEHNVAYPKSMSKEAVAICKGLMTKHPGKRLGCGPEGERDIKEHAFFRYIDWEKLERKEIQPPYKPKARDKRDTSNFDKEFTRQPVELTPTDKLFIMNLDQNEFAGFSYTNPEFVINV
Sequence of PKC-βII (P05771 1-673 isoform P05771-2): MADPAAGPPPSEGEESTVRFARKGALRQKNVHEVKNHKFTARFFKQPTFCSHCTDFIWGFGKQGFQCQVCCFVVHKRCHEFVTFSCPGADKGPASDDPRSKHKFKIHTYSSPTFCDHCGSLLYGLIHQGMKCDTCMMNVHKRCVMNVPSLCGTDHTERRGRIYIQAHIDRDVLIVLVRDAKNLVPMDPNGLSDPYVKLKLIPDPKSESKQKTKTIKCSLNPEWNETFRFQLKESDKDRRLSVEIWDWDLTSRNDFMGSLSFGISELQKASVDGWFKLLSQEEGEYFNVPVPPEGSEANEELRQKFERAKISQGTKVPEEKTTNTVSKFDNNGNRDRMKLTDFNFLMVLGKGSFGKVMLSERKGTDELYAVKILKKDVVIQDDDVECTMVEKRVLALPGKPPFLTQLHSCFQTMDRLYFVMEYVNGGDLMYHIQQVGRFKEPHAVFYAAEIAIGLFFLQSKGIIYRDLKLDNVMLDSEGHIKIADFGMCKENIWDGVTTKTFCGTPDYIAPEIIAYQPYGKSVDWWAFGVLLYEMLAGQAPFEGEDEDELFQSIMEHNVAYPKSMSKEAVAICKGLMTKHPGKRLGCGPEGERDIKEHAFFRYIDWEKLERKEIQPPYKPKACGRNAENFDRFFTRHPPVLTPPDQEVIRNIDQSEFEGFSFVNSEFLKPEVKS

Consider Ac-AKGIQEVKGGDAQNLIGISI-NH2 [PRE 3], for which the values for the inhibition at 50 µM at PKC-βII (PRE 50 μM) and on PKC-βI (PRE 50 μM) were 0% and 26%, respectively. The inhibition at 100 µM at PKC-βII (PRE 100 μM) was 0%; on PKC-βI (PRE 100 μM), 22.5%. Further, the inhibition at 200 µM on PKC-βII (PRE 200 μM) is 3.72%; on PKC-βI (PRE 200 μM) it was 23%. Besides, on PKC-βII, the “Affinity for PKC isoform βII” value is reported as “—”. Moreover, at PKC-βI, the “Affinity for PKC isoform βI” value is given as “H”. Also, the “targeting of PKC-βI” value on PKC-βI is recorded as “targeted most strongly”.

Ac-AKGIQEVKGGKDAQNLIGISI-NH2 [PRE 5]: the inhibition at 50 µM on PKC-βII (PRE 50 μM) and at PKC-βI (PRE 50 μM) was 0% throughout. The inhibition at 100 µM at PKC-βII (PRE 100 μM) and at PKC-βI (PRE 100 μM) was 0% in each case. In addition, the inhibition at 200 µM at PKC-βII (PRE 200 μM) and at PKC-βI (PRE 200 μM) was 0% throughout. On PKC-βII, the “Affinity for PKC isoform βII” value is given as “—”. For the same substance, on PKC-βI, the “Affinity for PKC isoform βI” value was “—”.

In the case of Ac-ISIGILNQADK-NH2 [PRE 10], the “Affinity for PKC isoform βII” value with PKC-βII is “L”. The results for the “calculated binding capacity (100-% n) after subtraction of the DMSO apparent binding capacity” value (“calculated binding capacity (100-% n)” below) with PKC-βI (PRE 50 μM) and in the test with PKC-βI (PRE 100 μM) were 3.77 and 4.35, respectively. In addition, the “Affinity for PKC isoform βI” value in the test with PKC-βI is recorded as “—”.

With Ac-ISIGILQNADK-NH2 [PRE 7], the “calculated binding capacity (100-% n)” value with PKC-βII (PRE 50 μM) is given as 5.42; with PKC-βII (PRE 100 μM), 11.07; in the test with PKC-βII (PRE 200 μM) it was 2.59. The “Affinity for PKC isoform βII” value in the test with PKC-βII is given as “—”. Also, the “Affinity for PKC isoform βI” value with PKC-βI is reported as “—”.

Take Ac-KDANQLIGISI-NH2 [PRE 6]: the “Affinity for PKC isoform βII” value in the test with PKC-βII is “—”. Besides, the “Affinity for PKC isoform βI” value with PKC-βI is “L”.

Consider Ac-KDAQNLI-NH2 [PRE 12], for which the “calculated binding capacity (100-% n)” value in the test with PKC-βII (PRE 50 μM) is reported as 4.55. Besides, the “Affinity for PKC isoform βII” value with PKC-βII is “—”. Moreover, the “Affinity for PKC isoform βI” value in the test with PKC-βI is “—”.

“Ac-KDAQNLIGISI-NH2 [PRE 4, Ac-KDAQNLIGISI-NH2]”: the inhibition at 50 µM was 2.69% on PKC-βII (PRE 50 μM) and 6.02% at PKC-βI (PRE 50 μM). Further, the inhibition at 100 µM is 13.5% on PKC-βII (PRE 100 μM) and 15.7% at PKC-βI (PRE 100 μM). Moreover, the figures for the inhibition at 200 µM at PKC-βII (PRE 200 μM) and at PKC-βI (PRE 200 μM) were 1.18% and 7.46%, respectively. Also, the “Affinity for PKC isoform βII” value on PKC-βII is reported as “L”. Also, the “Affinity for PKC isoform βI” value on PKC-βI is “L”.

As for Ac-RDAQNLI-NH2 [PRE 13], the “Affinity for PKC isoform βII” value with PKC-βII is given as “—”. Besides, the “Affinity for PKC isoform βI” value in the test with PKC-βI is on record as “—”.

Regarding Ac-RDAQNLIGISI-NH2 [PRE 11], the “calculated binding capacity (100-% n)” value is recorded as 7.14 with PKC-βII (PRE 50 μM); 11.04 with PKC-βII (PRE 100 μM); 6.40 with PKC-βII (PRE 200 μM); 9.86 in the test with PKC-βI (PRE 50 μM); 14.23 in the test with PKC-βI (PRE 100 μM); 12.5 in the test with PKC-βI (PRE 200 μM). In addition, the “Affinity for PKC isoform βII” value in the test with PKC-βII is given as “—”. The “Affinity for PKC isoform βI” value with PKC-βI is listed as “—”.

For the substance Ac-isigilgnadk-NH2 [PRE 9], the “calculated binding capacity (100-% n)” value is reported as 8.14 with PKC-βII (PRE 50 μM); 0.3 with PKC-βII (PRE 100 μM); 11.53 with PKC-βI (PRE 50 μM); 8.82 with PKC-βI (PRE 100 μM); 5.72 with PKC-βI (PRE 200 μM). Also, the “Affinity for PKC isoform βII” value with PKC-βII was “H”. In addition, the “targeting of PKC-βII” value with PKC-βII (purified isoform, Tables 14-19) is “targeted most strongly”. For the same substance, the “Affinity for PKC isoform βI” value in the test with PKC-βI is reported as “L”.

Turning to ILEDKGGDAQNLIGISI [PRE 8], in the test with PKC-βII (PRE 50 μM), the “calculated binding capacity (100-% n)” value is recorded as 1.11. Further, in the test with PKC-βII, the “Affinity for PKC isoform βII” value is reported as “—”. In the test with PKC-βI, the “Affinity for PKC isoform βI” value is given as “—”.

Take RRKKGGKDFVVKR [PRE 1]: in the test with PKC-βII, the “Affinity for PKC isoform βII” value is “—”. Also, in the test with PKC-βI, the “Affinity for PKC isoform βI” value is recorded as “H” and the “targeting of PKC-βI” value is given as “targeted most strongly”.
